Source: article PMC3838859 (Biochemistry, 2013)

Tests used:
[1] = test system: Nc1ncnc2c1ncn2[C@@H]1O[C@H](COP(=O)(O)OP(=O)(O)OP(=O)(O)O)[C@@H](O)[C@H]1O; test: steady-state kinetics of the nucleosidase reaction; assay type: biochemical, Escherichia coli; conditions: Mg2+
[2] = target: PhnI (C-P lyase nucleosidase) (Escherichia coli, UniProt P16687); assay type: biochemical
Sequence of PhnI (C-P lyase nucleosidase) (P16687 whole entry): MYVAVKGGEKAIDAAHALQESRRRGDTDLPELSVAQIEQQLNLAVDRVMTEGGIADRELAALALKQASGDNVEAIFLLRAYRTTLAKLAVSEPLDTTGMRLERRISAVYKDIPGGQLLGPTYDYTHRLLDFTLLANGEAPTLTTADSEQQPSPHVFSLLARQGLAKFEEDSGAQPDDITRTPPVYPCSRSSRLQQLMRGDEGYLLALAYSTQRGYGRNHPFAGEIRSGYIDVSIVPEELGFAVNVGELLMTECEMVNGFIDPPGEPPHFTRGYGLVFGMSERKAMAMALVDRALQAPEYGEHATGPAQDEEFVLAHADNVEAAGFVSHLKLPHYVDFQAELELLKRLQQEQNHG

Compound	Km [1] [µM]	Kd [2] [nM]
PhnI (C-P lyase nucleosidase) (Escherichia coli K-12)	95 ± 12	
Nc1ncnc2c([C@@H]3N[C@H](COP(=O)(O)OP(=O)(O)OP(=O)(O)O)[C@@H](O)[C@H]3O)c[nH]c12 [ImmA-TP, Immucillin-A triphosphate]		20 ± 4
